assay: yeast display, Sf9 membrane polyspecificity reagent, FACS + sequencing; frameworks hold sequencing errors
Procedure, shortened: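 Genes from sorted yeast were amplified by colony PCR, read by MiSeq 2 × 250 sequencing and filtered on CDR length. These cells carried a synthetic nanobody library in Saccharomyces cerevisiae BJ5465 and were sorted by FACS into low and high (top ~1%) gates on anti-HA and streptavidin fluorescence. Polyreactivity is labelled according to the gate of origin.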

Sequence | polyreactivity (PSR sort gate)
QVQLVESGGGLVQAGGSLRLSCAASGRIFPDNAMGWYRQAPGKERELVASITSGASTNYADSVKGRFTISRDNAKNTVFLQMNSLKPEDTAVYYCAAGYSYYDDYDYWGQGTQVTVSS | high polyreactivity
QVQLVESGVGLVQAGGSHRLSSGASGSIFSSYAMGWYRQEPVKERELVADISQSGGDTYYADSVQGRFTISRDNANNTVYLQRNSLKPEDNAVYYCAASVWYYPMDYWGKGTQVTVSS | low polyreactivity
QVQIVESGGGLVQAGGSLRLSCAASGSTFYSYAMGWYRPAPGKERELVAGISYIGGRTYYADSVKGRFTISRDNAKNTVYLQMNSLKAEDTAVYDCAADQYGTTYGYWGHGTQVTVSS | high polyreactivity
QVQLVESGGGLVQAGGSLRLSCAASGSIFGPNAMGWYRQAPGKERELGAAISWRGGSTYYADSVKGRFTISRDTAKNTVYLQMNSLKPEDTAVYYCNKYLTWAEGLPGYDYWGQGTQVTVSS | high polyreactivity
QVQLVESGGGLVQAGGSLRLSCAASGFTFRYYAMGWYRQAAGKDRELVAAISSGGRTYYADSVKGRFKISRDNAKNTVYLQMNSLKPADTAVYYCNASRHFRRVEYDYWGQGTQVTVSS | high polyreactivity
QVQLVESGGGLVQAGGSLRLSCTASGFTSRIYAMGWYRQAPVKERELVAAITRGVSTNYSDSVKGRFTISRDNAKNTVYLQMNSLKPEDTAVYYCAARTSGSYPYRTINEYWGQGTQVTVSS | high polyreactivity
QVQLVESGGGLVQAGGSLRLISAASGSIFVGNAMGWYRQSPGKERELVAAISRSGGRTYYADSVKGRFTISRDNAKNTVYLQMNSLKPEDTAVYYCNAYGWEQRQMDSWGQGTQVTVSS | high polyreactivity
QVQLVESGGCLVQAGGSLRLSCAASGLTIAYYAMGWYRQAPGKERDLVAAITSSGTSTYYADSVKGRFTISRDNAKNTVYLQMNSLKPEDTAVYYCNKYPYFVYGDYGYWGQGTQVTVSS | high polyreactivity
QVQLVESGGGLVQAGGSLRLSCAASGRTFYKYAMGWYRQAPGKERELVAAISGGGTTNYADSVKGRFTISRDNAKNTVYLQMNSLKPEDTAVYYCNAARTRWATGYDYWGQGTQVTVSS | low polyreactivity
QVQLEESGGGLVQAGGSLRLSCASSGRIFQVNTMGWYRQAPGKESELVAAISASVGSTYYADSVKGRFTISRDNAKNTVYLQMNILKPEDTAVYYCAKSLGYSVVRTLSPTGFYYWGQGTQVTVSS | low polyreactivity
QVQLVESGGGLVQAGGSLRLSCAASGFIFPQYAMGWYRQAPGKERELVAAISWSGTRTYYADSVKGRFTISRDNAKNTVYLQMNSLKPEDTAVYYCAARIDRQYRWTGFGYWGQGTQVTVSS | high polyreactivity
QVQLVESGGGLVQAGGSLRLSCAASGSTFLRNVMGWYRQAPGKERELVAAISSRGGSTHYADSVQGRFTISRDNAKHTVYLQMNSLKPEDTAVYYCNAERTAAQYVRAAYDYWGLGTQVTVSS | low polyreactivity
QVQLVESGRGLFQAGGRLRLSCAASGRIFSFYAMGWSRQAPGKERELVASITSGGITNYADSVKGRFTISRDNAKNTVYLQMNSLKPEDTAVYYCNAANPYRRVGSFTYKYDYWGQGTQVTVSS | low polyreactivity
QVQLVESGGGLVQAGGSLRLSCAASGSIIGYNTMGWYRQAPGKERELVAAISYSSGSTHYADSVKGRFTISRDNAKNTVYLQMNSLKPEDTAVYYCNTVRRWSFGYWGQGTQVTVSS | low polyreactivity
QVQLVESGGGLVQAGGSLRLSCAASGRIFKWYAMGWYRQAPGKEREFVAGIRWGGGRTHYADSVKGRFTISRDNAKNTVYLQMNSLKPEDTAVYYCAATSIGRYKSRLDYWGQGTQVTVSS | high polyreactivity
QVQLVESGGGLVQAGGSLRLSCPASGRTMVLNMGCYRHAPGKERELVATINSGGSTYYADSVKGRFTISRDNAKNTVYLQMNSLKPEDTAVYYCAVLSSDGKFDYWGQGTQVTVSS | low polyreactivity
QVQLVESGGGLVQAGGSLRLSCSSSGRIFNDYAMGWYRKAPGKERELVATYADSEKGRFTISRYTAKKTVYLQMNSLKPEDTAVYYCAADFPSFPDFRPEYDYWGQGPQVTVSS | low polyreactivity
QVQLVESGGGLVQAGGSLRLSCAASGRTFYRNAMGWYRQAPGKERELVAAISSRGGSTYYADSVKGRFTISRDNAKNSVYLQMNSLKPEDTAVYYCAATYGYGGDYDYWGQGTQVTVSS | high polyreactivity
QVQLVESRGGLVQAGGSLRLSCAASGSTFYFYDMGLYRQAPGKERELVGAISSSGGDTYYADSVKGRFTISRDNAKNTVYLQMNSLKPEDTAVYYCAAGQLYSGYEYWGQGTQVTVSS | low polyreactivity
QVQLVESGAGLVQAGGSLRLSCAASGSTFSRYAMGWYRQAPGKERELVAAISSRGGSTYYADSVKGRFTISRDNAKNTVYLQMNSLKPEDTAVYYCNALTSYQNHVYPYDYWGQGTQVTVSS | high polyreactivity
QVQIVESGGGLVQAGGSLRLSCAASGSIFSYNVMGWYRQAPGKERELVAAISWNDGSTYYADSVKGRFTISRDNAKNTVYLQMNSLKPEDTAVYYCAAEYGRRWHNELDYWGQGTQVTLSS | low polyreactivity

From the nanobody polyreactivity screen of Harvey et al. (2022)
